# From patent US20240262926A1 (published 2024)
# Where a chain is given by its changes, count along the chain named.
# T1: recombinant monkey TfR (r monkey TfR: Sino Biological Inc.) (cynomolgus monkey (Macaca fascicularis), UniProt Q5RDH6 89-760 (Pongo abelii entry))
# T1 construct: Bought product; also called r monkey TfR-ECD (Histag); cynomolgus monkey TfR; not shown: histidine tag attached to the N-terminus
# T1 chain: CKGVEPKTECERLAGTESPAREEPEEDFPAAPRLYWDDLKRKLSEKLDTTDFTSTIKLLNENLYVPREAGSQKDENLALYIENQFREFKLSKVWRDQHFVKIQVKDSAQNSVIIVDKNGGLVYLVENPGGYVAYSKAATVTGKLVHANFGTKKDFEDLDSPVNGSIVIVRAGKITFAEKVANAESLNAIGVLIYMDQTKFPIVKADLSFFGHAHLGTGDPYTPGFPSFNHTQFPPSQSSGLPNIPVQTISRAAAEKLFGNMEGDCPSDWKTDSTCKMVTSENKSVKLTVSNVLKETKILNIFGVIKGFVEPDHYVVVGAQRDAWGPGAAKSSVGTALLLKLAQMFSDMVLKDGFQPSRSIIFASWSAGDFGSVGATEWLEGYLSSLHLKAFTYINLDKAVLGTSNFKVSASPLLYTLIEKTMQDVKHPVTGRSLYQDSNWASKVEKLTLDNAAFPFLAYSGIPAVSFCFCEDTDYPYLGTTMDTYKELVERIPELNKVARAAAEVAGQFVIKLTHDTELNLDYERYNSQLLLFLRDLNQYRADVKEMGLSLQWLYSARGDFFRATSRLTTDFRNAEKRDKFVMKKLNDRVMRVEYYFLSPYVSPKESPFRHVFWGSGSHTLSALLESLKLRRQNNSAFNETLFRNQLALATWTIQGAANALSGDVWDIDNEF
# B1: anti-hTfR antibody No. 11 (antibody, V domains shown)
# VH: EVQLQESGAELVRPGSSVKISCKASGYAFSIYWINWLKQRPGQGLEWIGQIYPGNGDTNYNGKFKGKATLTADKSSNTVYMRLSSLTSEDSAVYFCGRWGDDYAMDFWGQGTSVTVSS
# VL: DIVLTQSPATLSVTPGDRVSLSCRASQSIRNYLHWYQQKSHESPRLLIKYASQSISGIPSRFSGSGSGTDFTLSINSVETEDFGMYFCQQTNSWPYTFGGGTKLEIK
# notes: Mouse hybridoma antibody purified on Protein G; also called mouse anti-hTfR antibody No. 11; product of Clone 11 line
# B2: anti-hTfR antibody No. 13 (antibody, V domains shown)
# VH: B1 VH
# VL: B1 VL with L4I, S7T, S74T
# notes: Mouse hybridoma antibody purified on Protein G; also called mouse anti-hTfR antibody No. 13; product of Clone 13 line
# B3: anti-hTfR antibody No. 12 (antibody, V domains shown)
# VH: EVQLQESGAELARPGTSVKVSCKAAGYVFINYLIEWVKQRPGQGLEWIGVIHSGSGGTNYNDNFKDKATLTRDVSSSTAYMQLSSLTSDDSAVYFCARRNFGNYYFDYWGQGTTLTVSS
# VL: DIVLTQSHKFMSTVIGDRVSITCKASHDVKTAVAWYQQTPGQSPKLLTYWSSTRHTGVPDRFTGSGSGTDYTLTISSVQAEDLALYYCQQHFSTPLTFGAGTKLELK
# notes: Mouse hybridoma antibody purified on Protein G; also called mouse anti-hTfR antibody No. 12; product of Clone 12 line
# B4: anti-hTfR antibody No. 1 (antibody, V domains shown)
# VH: EVQLQESGGGLVQPGGSLKLSCAASGLTFSNYGMSWIRQTPDKRLELVANINTNGGSTYYPDSVKGRFTISRDNAKNTLYLQMNSLKSEDTAIYYCTNNRYDEDYWGQGTSVTVSS
# VL: DIVLTQSSKFMSTSVGDRVSITCKASQDVNSAVAWFQQKPGQSPKLLIYWTSTRHTGVPDRFTGSGSGTVYTLTISSVQAEDLALYYCQQHYSTPRTFGGGTKLEIKR
# notes: Mouse hybridoma antibody purified on Protein G; also called mouse anti-hTfR antibody No. 1; product of Clone 1 line
# B5: anti-hTfR antibody No. 7 (antibody, V domains shown)
# VH: EVQLQESGGALVKPGGSLKVSCEASGITFRNYFMSWVRQTPEKRLEWVATISSAGGYTYYADSVKGRFTISRDNAGNTLYLQMSSLRSEDTAMYFCARQEVPYPYAMDYWGQGTSVIVSS
# VL: DIVLTQSPVIMSASLGEEITLTCSASSSVNYIHWYQQKSGTSPKVLIYQTSNLASGVPSRFSGSRSGTFYSLKISSVEAEDAADYYCHQWSSYPWTFGGGTKLEIK
# notes: Mouse hybridoma antibody purified on Protein G; also called mouse anti-hTfR antibody No. 7; product of Clone 7 line
# B6: anti-hTfR antibody No. 8 (antibody, V domains shown)
# VH: EVQLQESGPGLVAPSQSLSITCTVSGFSLTTYGVSWIRQPPGKGLEWLGIIWGDGSTNYRSALISRLSISKDNSKNQVFLKLNSLQTDDTATYYCAKPDDYWGQGTSVTVSS
# VL: B5 VL with V9A, N30S, I32M, Q49G, G56E, R65G, K73T
# notes: Mouse hybridoma antibody purified on Protein G; also called mouse anti-hTfR antibody No. 8; product of Clone 8 line
# B7: anti-hTfR antibody No. 2 (antibody, V domains shown)
# VH: EVQLQESGAELVRPGVSVKISCKGSGYTFTDYVMHWVRQSHAKSLEWIGVISTYYGHGSYNQRFKGKATMTVDKSSSTAYLELVRLTSEDSAIYYCVRGGYGSSSLAGNFDVWGAGTTVTVSS
# VL: DIVLTQSPATLSVTPGDSVSLSCRASQSISNNLQWYQQKSHESPRLLIKYASQSISGIPSRFSGSGSGTDFTLSINSVETEDFGMYFCQQSNSWPRTFGAGTKLELKR
# notes: Mouse hybridoma antibody purified on Protein G; also called mouse anti-hTfR antibody No. 2; product of Clone 2 line
# B8: anti-hTfR antibody No. 14 (antibody, V domains shown)
# VH: EVQLQESGPELLKPGASVKMSCKASGYAFTGYVIHWVKQKPGQGLEWIGFLNPHKDDSEYNEKFRGKATLTSDKSSSTAYMDLSSLTSEDSAVYYCARGYYYYSMDYWGQGTSVTVSS
# VL: DIVLTQTPVIMSAYPGEKVTLTCSASSNINSIHWYQQKPGTSPKRWIYDTSNLASGVPARFSGSGSGTSYSLTISSMEAEDAASYYCHQRSGYPFTFGSGTKLEIK
# notes: Mouse hybridoma antibody purified on Protein G; also called mouse anti-hTfR antibody No. 14; product of Clone 14 line
# B9: anti-hTfR antibody No. 9 (antibody, V domains shown)
# VH: EVQLQESGPELKKPGETVKISCKASGYTFTNYGVSWVKQAPGKDLKWMGWIYTFTGEATYIDDFRGRFAFSLETSANTAYLQINNLKNEDTATYFCSRRNGAWFEDWGQGTLVTVSA
# VL: DIVLTQSPALMSASPGETVTMTCSASSSVSLMFWYQQKPRSSPKPWIYFTSYRASGVPIRFSGSGSGTSFSLTISNLEAEDAATYYCQQWTSDPPTFGSGTKLEIE
# notes: Mouse hybridoma antibody purified on Protein G; also called mouse anti-hTfR antibody No. 9; product of Clone 9 line
# B10: anti-hTfR antibody No. 6 (antibody, V domains shown)
# VH: EVQLQESGPGLVAPSQSLSITCSVSGFSLSTYGVYWVRQPPGKGLEWLGIIWGDGSTNYHSALISRLTISKDNSKSQVFLKLNSLQTADTATYYCAKPDDVWGAGTTVTVSS
# VL: DIVLTQTPSSLSASLGERVSLTCRASQEISGYLSWLQQKPDGTIKRLIYAASTLDSGVPKRFSGSRSGSDYSLTISSLESEDFADYYCLQYSSYPRTFGGGTKLEIK
# notes: Mouse hybridoma antibody purified on Protein G; also called mouse anti-hTfR antibody No. 6; product of Clone 6 line
# B11: anti-hTfR antibody No. 10 (antibody, V domains shown)
# VH: B5 VH with A10G, V20L, F33A, A54Y, I70V, F95H, A106P, Y109N
# VL: B10 VL with L4M, A25P, S92A
# notes: Mouse hybridoma antibody purified on Protein G; also called mouse anti-hTfR antibody No. 10; product of Clone 10 line
# B12: anti-hTfR antibody No. 4 (antibody, V domains shown)
# VH: EVQLQESGAELVRPGTSVRVFCKASGYAFTNYLIEWVKQRPGQGLEWIGLINPGSGGIIYNEKFTDRATLTADKSSSTAYMQLSSLTSDDSAVYFCARSNYYGTTYWHFDVWGAGTTVTVSS
# VL: DIVLTQTPAIMSASPGEKVTMTCSASSNVNYMHWYQQKSSTSPKLWIYDTSKLASGVPGRFSGSGSGNSYSLTISSMEAEDVATYYCFQGNGNPYTFGGGTKLEIK
# notes: Mouse hybridoma antibody purified on Protein G; also called mouse anti-hTfR antibody No. 4; product of Clone 4 line
# B13: anti-hTfR antibody No. 5 (antibody, V domains shown)
# VH: EVQLQESGPELVKPGASVKMSCKASGYTFTNFVIHWVKQRPGQGLEWIGFFNPHKNGAEYNEKFQVKATLTSDKSSTTAYMELNSLTSEDSAVYYCARSFYYYSMDYWGQGTSVTVSS
# VL: DIVMTQTPAIMSASPGEKVTMTCSASSSISSIHWYQQKPGTSPKRWIYDTSTLASGVPVRFSGSGSGTSYSLTISSMEAEDAATYYCHQRSSYPTFGGGTKLEIK
# notes: Mouse hybridoma antibody purified on Protein G; also called mouse anti-hTfR antibody No. 5; product of Clone 5 line
# Target: T2, recombinant human TfR (r human TfR: Sino Biological Inc.) (human, UniProt P02786 89-760)
# T2 construct: Bought product; also called r human TfR-ECD (Histag); hTfR; not shown: histidine tag attached to the N-terminus
# Assay: BLI (Octet RED96), His-tagged TfR ECD loaded on Ni-NTA sensor, antibody as analyte
# Experimental: (§1) By measuring the variations of this shift between the interfering waves, determination of the number of the molecules bound to the layer of the biomolecules immobilized to the sensor tip surface and kinetic analysis of it can be performed in real time. The measurement was performed according generally to the operating manual attached to Octet RED96. As a human TfR, a recombinant human TfR (r human TfR: Sino Biological Inc.) was used, which had the amino acid sequence of the hTfR extracellular region, i.e., the cysteine residue at the position 89th from the N-terminal side to the phenylalanine at the C-terminus, of the amino acid sequence set forth as SEQ ID NO:1, with a histidine tag attached to the N-terminus. As a monkey TfR, a recombinant monkey TfR (r monkey TfR: Sino Biological Inc.) was used, which had the amino acid sequence of the cynomolgus monkey TfR extracellular region, i.e., the cysteine residue at the position 89th from the N-terminal side to the phenylalanine at the C-terminus, of the amino acid sequence set forth as SEQ ID NO:2, with a histidine tag attached to the N-terminus.
# (§2) Each of the antibodies (anti-hTfR antibody Nos. 1 to 14) purified above was subjected to 2-fold dilution steps with HBS-P+(10 mM HEPES containing 150 mM NaCl, 50 μM EDTA and 0.05% Surfactant P20) to prepare antibody solutions of 7 different concentrations, 0.78125 to 50 nM (0.117 to 7.5 μg/mL). These antibody solutions were used as the sample solutions. The r human and r monkey TfRs were respectively diluted with HBS-P+ to prepare 25 μg/mL solutions, which were used as r human TfR-ECD (Histag) solution and r monkey TfR-ECD (Histag) solution, respectively.
# (§3) Each of the sample solutions prepared above by 2-fold dilution steps was added, 200 μL/well, to a 96-well plate, black (Greiner Bio-One Inc.). Each of the r human TfR-ECD (Histag) solution and the r monkey TfR-ECD (Histag) solutions prepared above was added, 200 μL/well, to predetermined wells. To respective wells for baseline, dissociation and washing were added HBS-P+, 200 μL/well. To wells for regeneration were added 10 mM Glycine-HCl, pH 1.7, 200 μL/well. To wells for activation was added 0.5 mM NiCl₂ solution, 200 μL/well. The plate and biosensor (Biosensor/Ni-NTA: ForteBio Inc., a division of Pall Corporation) were set in the prescribed positions of Octet RED96.
Binder,Kd,koff,kon
B1,0.0837 nM,2.28e-05 s⁻¹,272000 M⁻¹ s⁻¹
B2,< 0.001 nM,< 1e-07 s⁻¹,835000 M⁻¹ s⁻¹
B3,0.432 nM,0.000723 s⁻¹,754000 M⁻¹ s⁻¹
B4,0.00509 nM,2.55e-06 s⁻¹,500000 M⁻¹ s⁻¹
B5,0.0822 nM,3.03e-05 s⁻¹,369000 M⁻¹ s⁻¹
B6,< 0.001 nM,< 1e-07 s⁻¹,696000 M⁻¹ s⁻¹
B7,0.0112 nM,1.23e-05 s⁻¹,1.11e+06 M⁻¹ s⁻¹
B8,< 0.001 nM,< 1e-07 s⁻¹,961000 M⁻¹ s⁻¹
B9,0.121 nM,9.46e-05 s⁻¹,782000 M⁻¹ s⁻¹
B10,0.958 nM,0.000723 s⁻¹,754000 M⁻¹ s⁻¹
B11,1.13 nM,0.000766 s⁻¹,679000 M⁻¹ s⁻¹
B12,0.12 nM,0.000229 s⁻¹,1.91e+06 M⁻¹ s⁻¹
B13,0.0364 nM,2.44e-05 s⁻¹,671000 M⁻¹ s⁻¹

# Target: T1, recombinant monkey TfR (r monkey TfR: …)
# Assay: as above
# Experimental: as §1, §2, §3
Binder,Kd,koff,kon
B1,3.38 nM,0.000421 s⁻¹,124000 M⁻¹ s⁻¹
B2,0.123 nM,7.29e-05 s⁻¹,591000 M⁻¹ s⁻¹
B3,0.249 nM,0.000126 s⁻¹,505000 M⁻¹ s⁻¹
B4,< 0.001 nM,< 1e-07 s⁻¹,280000 M⁻¹ s⁻¹
B5,0.0171 nM,4.54e-06 s⁻¹,266000 M⁻¹ s⁻¹
B6,9.18 nM,0.00507 s⁻¹,552000 M⁻¹ s⁻¹
B8,0.0516 nM,3.61e-05 s⁻¹,700000 M⁻¹ s⁻¹
B10,0.123 nM,0.000236 s⁻¹,495000 M⁻¹ s⁻¹
B11,31.6 nM,0.0122 s⁻¹,387000 M⁻¹ s⁻¹
B12,0.161 nM,0.000121 s⁻¹,754000 M⁻¹ s⁻¹
B13,1.46 nM,0.000758 s⁻¹,519000 M⁻¹ s⁻¹
